Test results as given in paper PMC6944315.
Where “and” joins values, the source holds several entries; their conditions need not be identical. Equal entries are not always repeated.

Tests used:
[1] = biological target: CmSQR truncated 1 (T1), lacking the complete last C-terminal helix (Caldivirga maquilingensis IC-167); assay: native gel or EMSA
[2] = biological target: CmSQR truncated 1 (T1), lacking the complete last C-terminal helix (Caldivirga maquilingensis IC-167); assay: SEC
[3] = biological target: Caldivirga maquilingensis type III sulfide:quinone oxidoreductase, wild type, His-tagged (Caldivirga maquilingensis IC-167); assay: SEC
[4] = biological target: CmSQR truncated 2 (T2), lacking the last two C-terminal helices, His-tagged (Caldivirga maquilingensis IC-167); assay: native gel or EMSA
[5] = biological target: CmSQR truncated 2 (T2), lacking the last two C-terminal helices, His-tagged (Caldivirga maquilingensis IC-167); assay: SEC
[6] = biological target: CmSQR truncated 2 (T2), lacking the last two C-terminal helices, His-tagged (Caldivirga maquilingensis IC-167); assay: cross-linking

## CmSQR truncated 1 (T1), lacking the complete last C-terminal helix (domain or fragment)
[1]
  stoichiometry N: 2
[2]
  stoichiometry N: 2

## Caldivirga maquilingensis type III sulfide:quinone oxidoreductase, wild type, His-tagged (enzyme)
[3]
  stoichiometry N: 2

## CmSQR truncated 2 (T2), lacking the last two C-terminal helices, His-tagged (domain or fragment)
[4]
  stoichiometry N: 2 and 3
[5]
  stoichiometry N: 2
[6]
  stoichiometry N: 2 and 3
